This assay concerns the target human VAP-1 expressed on the surface of transfected Ax rat endothelial cells (human) (UniProt Q16853). Kind of assay: cell-based or functional assay.

Chain of human VAP-1 expressed on the surface of transfected Ax rat endothelial cells (human) (Q16853 whole entry): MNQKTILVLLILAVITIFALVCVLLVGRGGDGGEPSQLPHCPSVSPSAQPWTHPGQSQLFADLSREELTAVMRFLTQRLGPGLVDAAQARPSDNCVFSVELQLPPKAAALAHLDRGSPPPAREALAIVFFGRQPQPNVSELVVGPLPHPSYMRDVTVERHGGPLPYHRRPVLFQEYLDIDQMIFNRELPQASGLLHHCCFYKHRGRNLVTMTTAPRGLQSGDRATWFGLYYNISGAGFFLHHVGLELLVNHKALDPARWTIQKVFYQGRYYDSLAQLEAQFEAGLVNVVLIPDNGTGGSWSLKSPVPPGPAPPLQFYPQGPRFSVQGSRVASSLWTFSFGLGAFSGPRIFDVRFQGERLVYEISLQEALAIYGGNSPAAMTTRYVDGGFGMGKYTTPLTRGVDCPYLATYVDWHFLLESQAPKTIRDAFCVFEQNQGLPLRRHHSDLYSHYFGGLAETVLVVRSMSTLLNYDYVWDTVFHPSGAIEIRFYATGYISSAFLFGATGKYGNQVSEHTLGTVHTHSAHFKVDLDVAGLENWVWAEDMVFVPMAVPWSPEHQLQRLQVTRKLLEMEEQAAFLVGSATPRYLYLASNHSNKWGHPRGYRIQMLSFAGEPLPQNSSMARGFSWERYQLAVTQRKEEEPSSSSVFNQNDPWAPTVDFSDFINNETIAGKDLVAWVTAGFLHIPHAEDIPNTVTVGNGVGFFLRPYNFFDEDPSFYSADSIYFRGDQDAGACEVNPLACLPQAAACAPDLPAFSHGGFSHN

With “BTT-1002, chimeric anti-VAP-1 monoclonal antibody”, the migration of human PBMC through a monolayer of Ax endothelial cells expressing human VAP-1 (in vitro transmigration assay) was 1.

The values above are taken from patent US20110117021A1.
